The target in series [1] is T1, von Willebrand factor full length (Homo sapiens, UniProt P04275 SEQ:764-2813). As to the kind of experiment: filter; DPBS, 0.1 mg/mL BSA, RT. As to conditions: tags: Calbiochem 681300; label: 5'-32P. The protocol: KD values were calculated by fitting the equation y=(max/(1+K/protein))+yint using KaleidaGraph (KaleidaGraph v. 3.51, Synergy Software).
For series [2], the target named is von Willebrand factor A1 domain (human) (Homo sapiens, UniProt P04275 SEQ:13-246). As to the kind of experiment: filter; 100 nM protein. From the text:
When a significant positive ratio of binding of RNA in the presence of human or rabbit vWF A1 domain versus in the absence of protein was seen, the pools were cloned using the TOPO TA cloning kit (Invitrogen, Cat.# 45-0641, Carlsbad, Calif.) according to the manufacturer's instructions. Round 9 and 12 pool templates were cloned and sequenced (125 total sequences), producing 48 unique clones. All unique clones were transcribed, desalted, 5-³²P end-labeled, and assayed in a 3-point dot blot screen (no protein target control, 100 nM human vWF A1 domain (SEQ ID NO 5, FIG. 3), or 100 nM rabbit vWF A1 domain (SEQ ID NO 6, FIG. 3). The data is presented in the third and fourth columns of Table 4 below as the ratio of the fraction of the aptamer bound to the nitrocellulose in the presence of the target protein to the fraction of aptamer bound in the absence of the target protein.

Series [3] addresses von Willebrand factor A1 domain (Homo sapiens, UniProt P04275 SEQ:13-246). As to the kind of experiment: filter; DPBS, 0.1 mg/mL BSA, 24 C. As to conditions: label: 5'-32P. The protocol:
Based on this initial screen, KDs were determined for 12 of the best vWF dependent binding sequences using the dot blot assay and are reported in column 5 of Table 4 below.

In series [4] the target is T1, von Willebrand factor full length. The series can be described thus: filter; 46% bound at 100 nM. As to conditions: tags: Calbiochem 681300. On the procedure:
(§1) For KD determination, chemically synthesized aptamers were purified using denaturing polyacrylamide gel electrophoresis, 5′end labeled with γ-³²P ATP and were tested for direct binding to full length human vWF (Calbiochem Cat.# 681300, La Jolla, Calif.). An 8 point protein titration was used in the dot blot binding assay (100 nM, 30 nM, 10 nM, 3 nM, 1 nM, 300 pM, 100 pM, 0 pM)) in 1× Dulbecco's PBS containing […] (final volume of 50 uL) for 30 minutes at room temperature. KD values were calculated by fitting the equation y=(max/(1+K/protein))+yint using KaleidaGraph (KaleidaGraph v. 3.51, Synergy Software).

The target is the same in series [5]. The series can be described thus: filter; 40% bound at 100 nM. As to conditions: tags: Calbiochem 681300. The protocol:
as §1

Series [6] has the same target. As to the kind of experiment: filter; 20 nM protein. As to conditions: tags: Calbiochem 681300. The protocol: (§2) When a significant positive ratio of binding of DNA in the presence of human or rabbit vWF A1 domain versus in the absence of protein was seen, the pools were cloned using the TOPO TA cloning kit (Invitrogen Cat.# 45-0641, Carlsbad, Calif.) according to the manufacturer's instructions. […] All unique clones were assayed twice in a 3-point dot blot screen (no protein target control, 20 nM full length human vWF (Calbiochem Cat.# 681300, La Jolla, Calif.), or 20 nM rabbit vWF A1 domain. The data is presented in the third and fourth columns of Table 17 below as the ratio of the fraction of the aptamer bound to the nitrocellulose in the presence of the target protein to the fraction of aptamer bound in the absence of the target protein.

For series [7], the target named is T2, von Willebrand factor A1 domain (rabbit) (Oryctolagus cuniculus).
T2 chain: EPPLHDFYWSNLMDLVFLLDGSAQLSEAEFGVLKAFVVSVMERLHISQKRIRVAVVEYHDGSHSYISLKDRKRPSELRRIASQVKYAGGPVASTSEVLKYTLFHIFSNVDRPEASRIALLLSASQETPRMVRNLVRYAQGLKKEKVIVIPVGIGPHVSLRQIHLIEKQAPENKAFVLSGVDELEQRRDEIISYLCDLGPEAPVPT
As to the kind of experiment: filter; 20 nM protein. The following applies: tags: 6xHis. The protocol:
as §2

Substitutions are numbered along the chain they refer to.

One may read the Kd as the constant that tells how readily two partners part at equilibrium.

Consider GGGACGGGGTGGGTAGACGGCGGGTATGTCCC (mixed, 2'-OH purines, deoxy pyrimidines) [rRdY minimer SEQ 183], for which the Kd in series [1] was 10 nM.

B1: AMX201.B11 (ssRNA)
RNA: GGAGCGCACUCAGCCACACCGAGGCUGGAUAUCUACGAGAGGAAGUGCUGCUUGAAUUUCGACCUCUCUGCUAGC
modifications: 2'-F pyrimidines
Regarding B1, the binding signal in series [2] was 1.55 ratio to no protein.

B2: AMX201.D10 (ssRNA)
RNA: B1 RNA with C20U, A55G
modifications: 2'-F pyrimidines
Turning to B2, the binding signal in series [2] is 1.59 ratio to no protein.

B3: AMX201.G9 (ssRNA)
RNA: GGAGCGCACUCAGCCACUAACGGCUGAUCUCAGGACUAAAUAGUCAACAAGGAUGCGUUUCGACCUCUCUGCUAGC
modifications: 2'-F pyrimidines
In series [3], B3 displayed a Kd of 182 nM.

B4: AMX201.B3 (ssRNA)
RNA: GGAGCGCACUCAGCCACAGAGCCCUGAGUGUAUGAUCGCCGAGAUCUAUCGAUGCUUUUUCGACCUCUCUGCUAGC
modifications: 2'-F pyrimidines
As for B4, the binding signal in series [2] was 1.69 ratio to no protein.

B5: AMX201.D3 (ssRNA)
RNA: GGAGCGCACUCAGCCACGCCCACGUCAAAUUAUAGUCUACUUUGAUGUGCCCGUGGUUUCGACCUCUCUGCUAGC
modifications: 2'-F pyrimidines
In the case of B5, the binding signal in series [2] was 1.76 ratio to no protein.

B6: AMX201.A8 (ssRNA)
RNA: GGAGCGCACUCAGCCACGCUGUACACUGAUGUUGUAACAUGUACCCCCUGGCUGUUUCGACCUCUCUGCUAGC
modifications: 2'-F pyrimidines
On to B6, for which the binding signal in series [2] is 1.82 ratio to no protein.

B7: AMX201.C8 (ARC840) (ssRNA)
RNA: GGAGCGCACUCAGCCACCCUCGCAAGCAUUUUAAGAAUGACUUGUGCCGCUGGCUGUUUUCGACCUCUCUGCUAGC
modifications: 2'-F pyrimidines
The molecule B7 yielded a dissociation constant (Kd) in series [3] of 0.2 nM.

B8: AMX201.H4 (ssRNA)
RNA: GGAGCGCACUCAGCCACUAACGGUUGAUCUCAGGACUAAUAGUCAACAAGGAUGCGUUUCGACCUCUCUGCUAGC
modifications: 2'-F pyrimidines
For the molecule B8, the binding signal in series [2] is 1.79 ratio to no protein.

GGAGCCACACGACATTGGCGGGTTGTAATTACCACGCATGGCTCC (mixed, 2'-OH purines, deoxy pyrimidines) [rRdY minimer SEQ 189]: the Kd in series [1] came to 1 nM.

B9: AMX198.E11 (ssRNA)
RNA: GGAGCGCACUCAGCCACGGUAACAUUGUUUCCGGCGAUUCUUUGAACGCCGUCGUGGUUUCGACCUCUCUGCUAGC
modifications: 2'-F pyrimidines
In series [3], B9 registered a Kd of 1060 nM.

For the molecule GGCGTGCAGTGCCTTCGGCCGTGCGGTGCCTCCGTCACGCC (ssDNA, 2'-OMe at 1; 3'-idT) [ARC1194], the Kd in series [4] worked out at 3 nM.

In the case of GGCGTGCAGTGCCTTCGGCCGTGCGGTGCCTCCGTCACGCC (ssDNA, 2'-OMe at 3; 3'-idT) [ARC1196], the dissociation constant Kd in series [4] was 2 nM.

Take GGCGTGCAGTGCCTTCGGCCGTGCGGTGCCTCCGTCACGCC (ssDNA, 2'-OMe at 11,12,13,17,18,19; 3'-idT) [ARC1240]: the Kd in series [5] came to 4 nM.

Take GGCGTGCAGUGCCTTCGGCCGTGCGGTGCCTCCGTCACGCC (ssDNA, 2'-OMe at 10 (mU); 3'-idT) [ARC1203]: the Kd in series [5] is 3 nM.

In the case of GGCGTGCAGTGCCTTCGGCCGTGCGGTGCCTCCGTCACGCC (ssDNA, 2'-OMe at 34; 3'-idT) [ARC1227], the Kd in series [5] was 3 nM.

For the molecule GGCGTGCAGTGCCTTCGGCCGTGCGGTGCCTCCGTCACGCC (ssDNA, 2'-OMe at 4; 3'-idT) [ARC1197], the equilibrium dissociation constant (Kd) in series [4] is 2 nM.

As for GGCGTGCAGTGCCTTCGGCCGTGCGGTGCCTCCGTCACGCC (ssDNA, 2'-OMe at 37; 3'-idT) [ARC1230], the Kd in series [4] was 3 nM.

For GGCGTGCAGTGCCTTCGGCCGTGCGGTGCCTCCGTCACGCC (ssDNA, 2'-OMe at 23; 3'-idT) [ARC1216], the Kd in series [5] turned out to be 0.6 nM.

As to GGCGTGCAGTGCCTTCGGCCGTGCGGTGCCTCCGTCACGCC (ssDNA, 2'-OMe at 29; 3'-idT) [ARC1222], the Kd in series [5] worked out at 0.9 nM.

B10: AMX201.H11 (ssRNA)
RNA: GGAGCGCACUCAGCCACCCUGUCGUCUUUUGGUAGUCAGCCAAAAGCUAGUUGGUUGUUUCGACCUCUCUGCUAGC
modifications: 2'-F pyrimidines
Take B10: the binding signal in series [2] was 1.75 ratio to no protein.

B11: AMX201.H1 (ssRNA)
RNA: GGAGCGCACUCAGCCACUUUACGGUGAAAGUCUCUCGGGGUUCCGAGUUACGGUGCGUUUCGACCUCUCUGCUAGC
modifications: 2'-F pyrimidines
In series [3], B11 returned a dissociation constant Kd of 189 nM.

B12: AMX238.F5 (ssDNA)
DNA: CTACCTACGATCTGACTAGCGGAATGAGAAGCTGGTGGATTGCTCAGGTCTGCTGGCTGCTTACTCTCATGTAGTTCC
Regarding B12, the results for the binding signal in series [6] and in series [7] were 1.05 ratio to no protein and 4.4 ratio to no protein, respectively.

B13: AMX201.D4 (ssRNA)
RNA: GGAGCGCACUCAGCCACUGGGGCUGAUCUCGCACGAUAGUUCGUGUCAAGGAUGCGUUUUCGACCUCUCUGCUAGC
modifications: 2'-F pyrimidines
With B13, the binding signal in series [2] was 2.23 ratio to no protein.

B14: AMX198.C10 (ssRNA)
RNA: GGAGCGCACUCAGCCACUGGUCCUUAGCUAGUUGUACUAGCGACGCGUUCAGGUGGUUUCGACCUCUCUGCUAGC
modifications: 2'-F pyrimidines
B14 had a Kd in series [3] of 555 nM.

B15: AMX236.C1 (ssDNA)
DNA: CTACCTACGATCTGACTAGCGGAATGAGAATGTTGGTGGATTGCTCAGGTCTGCTGGCTGCTTACTCTCATGTAGTTCC
With B15, the binding signal in series [6] is 1.03 ratio to no protein; in series [7], 3.28 ratio to no protein.

B16: AMX238.F6 (ssDNA)
DNA: B15 DNA with A29T, T33C
For the molecule B16, the binding signal in series [7] was 5.36 ratio to no protein.

B17: AMX237.B12 (ssDNA)
DNA: B15 DNA with T33C, T34A
In the case of B17, in series [7], the binding signal was 4.67 ratio to no protein.

B18: AMX237.C1 (ssDNA)
DNA: B15 DNA with A29G, T33C
On to B18, for which the binding signal in series [6] is 0.76 ratio to no protein; in series [7] it was 3.47 ratio to no protein.

B19: AMX238.A6 (ssDNA)
DNA: B15 DNA with T33C, T34A, G36A
B19: the binding signal in series [6] was 0.92 ratio to no protein; in series [7], 3.47 ratio to no protein.

B20: AMX236.E2 (ssDNA)
DNA: B15 DNA with A29T, T33C, G36A
For the molecule B20, the binding signal in series [6] is 0.93 ratio to no protein; in series [7] it was 3.59 ratio to no protein.

B21: AMX236.C6 (ssDNA)
DNA: B15 DNA with A30G, T33C
Turning to B21, the binding signal in series [6] is 1.06 ratio to no protein; in series [7] it was 5.77 ratio to no protein.

B22: AMX238.A11 (ssDNA)
DNA: B15 DNA with A30G
Take B22: the binding signal in series [6] was 0.85 ratio to no protein; in series [7], 4.54 ratio to no protein.

B23: AMX237.E10 (ssDNA)
DNA: B15 DNA with T33C
In the case of B23, in series [7], the binding signal is 6.04 ratio to no protein.

The values are drawn from US20060264369, “Aptamers to von Willebrand Factor and their use as thrombotic disease therapeutics” (published 2006).
